Measured values reported in patent US20230167192A1 (SUZHOU ZELGEN BIOPHARMACEUTICALS, published 2023).

B1: human-mouse chimeric antibody UM03-L4 (antibody, human IgG4 S228P, kappa, V domains shown)
VH: EVKLVESGGDLVQPGGSRKLSCAASGFTFSDYGMAWIRQAPGKGPEWIAFITNLASSIYYADTVTGRFTISRENAKNTLYLEMSSLRSEDTAMYYCARAGDYRSFPYWGQGTPVTVSA
VL: EILLTQSPAIIAASPGEKVTITCSASSSVNYVNWYQQKPGSSPKIWIYGISNLASGVPARFSGSGSGTSFSFTINSMEAEDVATYYCQQRSTFPPYTFGGGTKLEIKR
notes: expressed in HEK293 cells
B2: humanized antibody UM03-C4 (antibody, human IgG4 S228P, kappa, V domains shown)
VH: QVQLVESGGGVVQPGGSLRLSCAASGFTFSDYGMAWIRQAPGKGPEWIAFITNLASSIYYADTVTGRFTISRDNSKNTLYLQMNSLRAEDTAVYYCARAGDYRSFPYWGQGTLVTVSA
VL: EIVLTQSPATLSLSPGERATLSCSASSSVNYVNWYQQKPGQAPRILIYGISNLASGVPARFSGSGSGTDFTLTISSLEPEDFAVYYCQQRSTFPPYTFGQGTKLEIKR
notes: expressed in HEK293 cells

How the values were obtained:
[1] = target: monkey CD47 on monkey erythrocytes (monkey); test: flow cytometry on monkey erythrocytes
monkey CD47 on monkey erythrocytes (monkey), sequence (A0A2K5 entry or part of it limits assumed): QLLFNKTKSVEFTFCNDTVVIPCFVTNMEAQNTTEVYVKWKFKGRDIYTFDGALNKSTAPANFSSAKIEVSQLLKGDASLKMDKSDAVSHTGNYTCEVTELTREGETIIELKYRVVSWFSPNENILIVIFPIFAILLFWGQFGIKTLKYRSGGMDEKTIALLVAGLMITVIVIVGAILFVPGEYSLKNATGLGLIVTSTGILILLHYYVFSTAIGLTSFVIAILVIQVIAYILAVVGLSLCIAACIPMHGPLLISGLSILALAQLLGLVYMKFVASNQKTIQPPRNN

human CD47 on cells [2] = target: T1, human CD47 on cells (human, UniProt Q08722 19-323); test: flow cytometry on human erythrocytes; human erythrocytes, flow cytometry
T1 construct: whole, on cells; also called CHO-CD47 cells; MKN-45
Description: Erythrocytes were first isolated from the peripheral blood of volunteers and suspended in physiological saline to obtain an erythrocyte suspension with a concentration of 2%. Serially diluted antibody solutions were prepared with PBS to formulate 2× working solutions at final concentrations. 50 μL of the antibody working solution was added into 50 μL of erythrocyte suspension, and the mixture was incubated at 4° C. in the dark for 60 min. After washing twice with PBS, a corresponding fluorescence-labeled secondary antibody was added, and the mixture was incubated for 30 min at 4° C. in the dark, washed twice with PBS, and suspended with 400 μL of FACS buffer. The binding of the antibodies to the erythrocytes was detected by a flow cytometer. For erythrocyte agglutination detection, 50 μL of the antibody working solution was also added into 50 μL of erythrocyte suspension. The mixture was placed on a 96-well round bottom plate, let stand at room temperature for 2 h, observed and photographed.

[3] = target: monkey CD47 on monkey erythrocytes (monkey, UniProt A0A2K5X4H8 19-305); test: flow cytometry on monkey erythrocytes
monkey CD47 on monkey erythrocytes, sequence (A0A2K5X4H8 entry or part of it limits assumed): as the sequence (A0A2K5 entry or part of it limits assumed) above

human CD47 on cells [4] = target: T1, human CD47 on cells; test: flow cytometry on A2780 cells
Description: (§1) First, the inventors verified the expression of CD47 in the above 3 cell lines using flow cytometry. Serially diluted solutions of anti-human CD47 detection antibody (eBioscience, 17-0479-42) and APC isotype (eBioscience, 17-4714-41), anti-huIgG 633 (life technologies, A21091) were prepared with PBS to formulate 2× working solutions at final concentrations. The three tumor cells were collected, washed with PBS once, counted, and diluted to 4×10⁶/mL cell suspension. For each cell line, 50 μL of the antibody working solution was added into 50 μL of cell suspension, and the mixture was incubated at 4° C. in the dark for 30 min. After washing twice with PBS, a corresponding fluorescence-labeled secondary antibody (anti-huIgG 633) was added, and the mixture was incubated for 30 min at 4° C. in the dark, washed twice with PBS, and suspended with 400 μL of FACS buffer. The binding of the antibodies to the cells was detected by a flow cytometer.
(§2) The method is the same as above.

human CD47 protein [5] = target: T2, human CD47 protein (human, UniProt Q08722 19-139, limits assumed); test: ELISA, plate coated with human CD47 protein
Description: The next day, the plate was washed 3 times with 300 μL of PBST (Tween 20: 0.5‰), then blocked with 5% BSA/PBS at 100 μL/well for 2 h, and shaken at room temperature. The plate was then washed with 300 μL of PBST 3 times. The antibody samples prepared with PBS were serially diluted, added to a 96-well plate at 100 μL/well and shaken for 1 h at room temperature. The plate was then washed with 300 μL of PBST 3 times. A secondary goat anti-mouse IgG HRP or goat anti-human IgG HRP solution was prepared, added to a 96-well plate at 100 μL/well and shaken for 1 h at room temperature. The plate was then washed with 300 μL of PBST 4 times. TMB was added at 100 μL/well for 20 min of chromogenesis. The chromogenesis was terminated by adding 0.6 N H₂SO₄ at 100 μL/well and the OD_{450 nm} was detected.

human CD47 on cells [6] = target: T1, human CD47 on cells; test: flow cytometry, inhibition of SIRPα-mFc binding to CHO-CD47 cells
human CD47 on cells [7] = target: T1, human CD47 on cells; test: flow cytometry on MKN-45 cells
Description: as §1, §2

human CD47 on cells [8] = target: T1, human CD47 on cells; test: flow cytometry on SW620 cells
Description: as §1, §2

human CD47 protein [9] = target: T2, human CD47 protein; test: SPR (Biacore T200), antibody captured on protein A chip, CD47 protein in solution
Description: The affinity of antigen-antibody binding was measured by SPR (surface plasma resonance). […] During the dissociation phase, elution was continued for 360 s with HBS-EP buffer. The binding of CD47 to the antibody on the sensor chip was quantitatively determined using Biacore T200 (GE Healthcare).

Molecule | EC50 [1] | plateau [1] | EC50 (human CD47 on cells [2]) | EC50 [3] | EC50 (human CD47 on cells [4]) | EC50 (human CD47 protein [5]) | IC50 (human CD47 on cells [6]) | EC50 (human CD47 on cells [7]) | EC50 (human CD47 on cells [8]) | Kd (human CD47 protein [9]) | koff (human CD47 protein [9]) | kon (human CD47 protein [9])
positive control antibody Hu5F9 | 0.586 µg/mL | 392 |  |  |  |  |  |  |  |  |  | 
B1 |  |  | 1.21 µg/mL | 0.907 µg/mL | 0.142 µg/mL | 0.25 µg/mL | 3.38 µg/mL | 0.381 µg/mL | 0.216 µg/mL |  |  | 
B2 |  |  | 0.93 µg/mL |  | 0.119 µg/mL | 0.169 µg/mL | 2.4 µg/mL | 0.354 µg/mL | 0.126 µg/mL | 0.19 nM | 0.000193 s⁻¹ | 1.02e+06 M⁻¹ s⁻¹
